Experimental data: paper PMC5632138 (Journal of molecular biology, 2017)

Experiments:
[1] = molecular target: T1, Full-length ETV4 Glu373Ala (UniProt P43268 1-484, Glu373Ala); test: BLI
T1 sequence (looked up): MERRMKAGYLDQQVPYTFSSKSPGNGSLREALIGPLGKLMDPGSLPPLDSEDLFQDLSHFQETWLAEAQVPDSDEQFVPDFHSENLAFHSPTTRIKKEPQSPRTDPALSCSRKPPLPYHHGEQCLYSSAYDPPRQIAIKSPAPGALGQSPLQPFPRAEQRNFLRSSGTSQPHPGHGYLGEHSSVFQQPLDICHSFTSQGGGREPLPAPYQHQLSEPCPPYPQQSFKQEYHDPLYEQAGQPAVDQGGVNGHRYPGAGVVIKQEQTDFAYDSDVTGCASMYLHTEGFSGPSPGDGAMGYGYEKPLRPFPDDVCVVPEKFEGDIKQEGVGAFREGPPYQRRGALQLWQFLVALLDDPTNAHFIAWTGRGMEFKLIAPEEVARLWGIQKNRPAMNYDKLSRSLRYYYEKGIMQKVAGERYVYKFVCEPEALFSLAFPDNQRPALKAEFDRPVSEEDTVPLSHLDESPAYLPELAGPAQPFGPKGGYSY

JUN/FOS heterodimers = JUN/FOS heterodimers (UniProt P05412 1-331; P01100 1-380); test: BLI
Sequence of JUN/FOS heterodimers (P05412 whole entry, chain 1 of 2): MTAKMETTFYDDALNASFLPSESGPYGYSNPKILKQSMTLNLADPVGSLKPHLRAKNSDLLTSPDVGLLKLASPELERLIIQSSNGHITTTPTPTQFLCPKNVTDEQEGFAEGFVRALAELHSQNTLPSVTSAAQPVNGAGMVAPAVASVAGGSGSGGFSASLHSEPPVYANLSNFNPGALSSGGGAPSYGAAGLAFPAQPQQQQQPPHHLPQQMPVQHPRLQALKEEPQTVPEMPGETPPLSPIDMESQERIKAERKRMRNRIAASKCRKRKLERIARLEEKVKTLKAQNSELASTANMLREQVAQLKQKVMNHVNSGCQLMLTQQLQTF
Sequence of JUN/FOS heterodimers (P01100 whole entry, chain 2 of 2): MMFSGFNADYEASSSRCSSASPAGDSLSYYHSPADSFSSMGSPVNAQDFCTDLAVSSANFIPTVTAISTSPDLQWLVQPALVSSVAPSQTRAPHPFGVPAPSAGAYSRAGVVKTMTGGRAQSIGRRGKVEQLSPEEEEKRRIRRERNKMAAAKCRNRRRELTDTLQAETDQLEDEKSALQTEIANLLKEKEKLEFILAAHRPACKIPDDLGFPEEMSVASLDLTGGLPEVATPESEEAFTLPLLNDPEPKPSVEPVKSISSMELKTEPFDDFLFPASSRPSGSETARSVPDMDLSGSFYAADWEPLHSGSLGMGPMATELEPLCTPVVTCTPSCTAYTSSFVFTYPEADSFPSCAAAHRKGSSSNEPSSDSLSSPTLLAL

B1: MED25 ACID (residues 391–553), biotinylated ligand for biolayer interferometry (domain or fragment, human, UniProt Q71SY5 391-553, looked up)
chain: GQQSVSNKLLAWSGVLEWQEKPKPASVDANTKLTRSLPCQVYVNHGENLKTEQWPQKLIMQLIPQQLLTTLGPLFRNSRMVQFHFTNKDLESLKGLYRIMGNGFAGCVHFPHTAPCEVRVLMLLYSSKKKIFMGLIPYDQSGFVNGIRQVITNHKQVQQQKLE
modifications: biotin (biotinylated; D-biotin added at the induction point)
With B1 the binding result [1] was “binds” and the Kd (JUN/FOS heterodimers) was 5 nM.
